For the assay, the target named is XPB–p62–p44–p34 sub-complex (human, UniProt P19447 1-782; P32780 1-548; Q13888 1-395; Q13889 1-308). In words: SEC.
Sequence of XPB–p62–p44–p34 sub-complex (P19447 whole entry, chain 1 of 4): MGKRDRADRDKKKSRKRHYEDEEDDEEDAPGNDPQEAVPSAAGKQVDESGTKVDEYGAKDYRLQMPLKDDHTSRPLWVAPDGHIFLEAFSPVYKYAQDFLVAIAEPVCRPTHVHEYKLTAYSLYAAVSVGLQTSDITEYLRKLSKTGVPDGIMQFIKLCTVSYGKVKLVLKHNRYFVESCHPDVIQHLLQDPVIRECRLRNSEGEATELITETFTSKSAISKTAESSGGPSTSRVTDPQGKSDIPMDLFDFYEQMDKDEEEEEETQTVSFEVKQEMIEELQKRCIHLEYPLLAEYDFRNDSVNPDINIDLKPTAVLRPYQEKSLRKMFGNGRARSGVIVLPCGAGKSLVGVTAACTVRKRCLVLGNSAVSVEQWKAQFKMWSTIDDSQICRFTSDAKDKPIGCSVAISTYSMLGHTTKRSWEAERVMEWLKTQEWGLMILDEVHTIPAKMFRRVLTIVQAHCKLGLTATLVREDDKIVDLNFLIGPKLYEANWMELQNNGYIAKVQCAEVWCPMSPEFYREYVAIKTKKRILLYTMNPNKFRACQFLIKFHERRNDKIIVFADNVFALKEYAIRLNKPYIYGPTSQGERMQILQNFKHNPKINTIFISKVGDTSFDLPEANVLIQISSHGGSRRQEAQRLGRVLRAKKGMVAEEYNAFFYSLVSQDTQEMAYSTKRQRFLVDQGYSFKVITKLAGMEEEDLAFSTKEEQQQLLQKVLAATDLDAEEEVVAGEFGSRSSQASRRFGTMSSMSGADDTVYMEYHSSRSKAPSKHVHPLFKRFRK
Sequence of XPB–p62–p44–p34 sub-complex (P32780 whole entry, chain 2 of 4): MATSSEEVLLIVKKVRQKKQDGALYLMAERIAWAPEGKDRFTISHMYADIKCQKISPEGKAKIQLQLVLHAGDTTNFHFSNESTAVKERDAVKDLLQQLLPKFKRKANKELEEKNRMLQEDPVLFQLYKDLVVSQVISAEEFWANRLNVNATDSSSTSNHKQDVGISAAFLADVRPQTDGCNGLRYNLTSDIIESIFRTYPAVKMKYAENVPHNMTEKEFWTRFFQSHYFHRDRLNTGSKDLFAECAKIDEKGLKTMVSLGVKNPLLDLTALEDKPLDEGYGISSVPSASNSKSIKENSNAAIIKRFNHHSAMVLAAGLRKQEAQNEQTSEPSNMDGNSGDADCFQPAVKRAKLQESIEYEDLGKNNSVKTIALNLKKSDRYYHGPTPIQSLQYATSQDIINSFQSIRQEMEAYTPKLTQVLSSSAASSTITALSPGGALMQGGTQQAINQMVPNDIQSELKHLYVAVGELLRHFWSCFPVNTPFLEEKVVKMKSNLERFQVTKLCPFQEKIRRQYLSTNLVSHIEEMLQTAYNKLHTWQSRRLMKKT
Sequence of XPB–p62–p44–p34 sub-complex (Q13888 whole entry, chain 3 of 4): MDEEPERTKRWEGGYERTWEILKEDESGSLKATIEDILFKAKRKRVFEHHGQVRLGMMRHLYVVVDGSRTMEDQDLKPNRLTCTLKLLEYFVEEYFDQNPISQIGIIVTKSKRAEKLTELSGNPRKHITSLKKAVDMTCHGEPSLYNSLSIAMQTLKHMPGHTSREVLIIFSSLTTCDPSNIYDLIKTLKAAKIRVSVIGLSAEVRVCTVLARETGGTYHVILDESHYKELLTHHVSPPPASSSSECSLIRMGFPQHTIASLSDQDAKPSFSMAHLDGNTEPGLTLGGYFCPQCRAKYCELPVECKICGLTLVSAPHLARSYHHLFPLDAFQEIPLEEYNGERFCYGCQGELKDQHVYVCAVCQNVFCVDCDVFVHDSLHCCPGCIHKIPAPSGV
Sequence of XPB–p62–p44–p34 sub-complex (Q13889 whole entry, chain 4 of 4): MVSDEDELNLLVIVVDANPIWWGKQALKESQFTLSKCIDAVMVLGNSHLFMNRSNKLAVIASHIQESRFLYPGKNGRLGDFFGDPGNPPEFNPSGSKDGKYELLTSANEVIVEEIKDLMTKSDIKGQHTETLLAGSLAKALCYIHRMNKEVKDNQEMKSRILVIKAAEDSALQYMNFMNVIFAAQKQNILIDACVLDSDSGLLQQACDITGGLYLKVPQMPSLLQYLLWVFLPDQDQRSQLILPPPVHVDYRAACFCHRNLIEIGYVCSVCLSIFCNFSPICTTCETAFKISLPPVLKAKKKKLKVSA

B1: GST–p8 (natural protein, human, UniProt Q6ZYL4 1-71, looked up)
chain: MVNVLKGVLIECDPAMKQFLLYLDESNALGKKFIIQDIDDTHVFVIAELVNVLQERVGELMDQNAFSLTQK
B1: the binding result is given as “binds”.

The values above are taken from paper PMC4265565 (Protein expression and purification, 2012).
